# Patent publication US20120094898A1, “PEPTIDE DERIVATIVE” (Takeda Pharmaceutical Company Limited, priority 2010, published 2012)
# Non-standard residues stand in square brackets, D forms with d. Primed or numbered codes have the meaning given here. *: point of attachment. Acetyl(2-(piperazin-1-yl)) = O=C(CN1CCNCC1)*; 2Nal = N[C@@H](Cc1ccc2ccccc2c1)C(=O)O; Pic(4) = not defined here; NMeA = CN[C@@H](C)C(=O)O; Ahx = NCCCCCC(=O)O
# How the values were obtained:
# human NMUR1 = target: T1, human NMUR1 (Homo sapiens, UniProt Q9HB89); assay: Ca influx assay using CHO cells expressing human NMUR1; type: cell-based; conditions: CHO cells stably expressing human NMUR1; intracellular Ca elevation, FLIPR Tetra; relative to 1 μM porcine NMU-8; read-out: hNMUR1 EC50
# T1 construct: expressed in transfected cells
# T1 sequence (Q9HB89 1-426): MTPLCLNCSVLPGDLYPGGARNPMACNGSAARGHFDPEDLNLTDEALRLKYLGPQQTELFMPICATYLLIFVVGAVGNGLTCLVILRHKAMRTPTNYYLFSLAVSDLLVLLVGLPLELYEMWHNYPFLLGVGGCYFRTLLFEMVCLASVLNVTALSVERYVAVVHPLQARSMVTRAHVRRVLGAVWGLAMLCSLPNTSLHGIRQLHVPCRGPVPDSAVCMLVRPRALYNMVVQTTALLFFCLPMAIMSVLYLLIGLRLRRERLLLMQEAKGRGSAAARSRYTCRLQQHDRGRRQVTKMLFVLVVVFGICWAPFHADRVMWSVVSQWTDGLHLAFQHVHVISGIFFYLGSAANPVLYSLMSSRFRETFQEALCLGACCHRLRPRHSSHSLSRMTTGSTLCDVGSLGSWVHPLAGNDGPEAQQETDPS
# Protocol: (§1) Ca Influx Assay Using CHO Cells Expressing Human NMUR1 or NMUR2
# (§2) CHO cells stably expressing human NMUR1 or NMUR2 (J Biol Chem 275(28), pp. 21068-21074 (2000); and J Biol Chem 275(38), pp. 29528-29532 (2000)) were seeded onto a 384-well black/clear plate (Becton Dickinson) (10,000 cells per well) using nucleic acid-free MEM-α medium (Nikken Bio Medical Laboratory) containing 10% dialyzed blood serum (Gemini Bio Products) and 50 μg/mL gentamycin (Invitrogen), and cultured overnight in 5% carbon dioxide at 37° C. Then, after removal of the medium, the cells were loaded with Calcium Kit-Fluo 4 (Dojindo) containing 0.1% fatty acid-free BSA (Wako) at 37° C. (for 15 minutes). Further, test compounds at each concentration, as well as 1 μmol/L porcine NMU-8 (BACHEM) as a control group, were added to the cells, and an elevation of intracellular Ca concentration was monitored for 3 minutes using a FLIPR Tetra system (Molecular Devices). The agonist activity (%) of each of the test compounds for NMUR was calculated using the following formula: […]
# (§3) wherein W represents a fluorescence value based on the intracellular Ca concentration in cells to which each test compound was added; X represents a fluorescence value based on the intracellular Ca concentration in cells to which only 0.1% DMSO was added; and Y represents a fluorescence value based on the intracellular Ca concentration in cells to which 1 μM porcine NMU-8 was added. The EC50 value of each test compound was calculated using Prism 5 (GraphPad).
# human NMUR2 = target: T2, human NMUR2 (Homo sapiens, UniProt Q9GZQ4); assay: Ca influx assay using CHO cells expressing human NMUR2; type: cell-based; conditions: CHO cells stably expressing human NMUR2; intracellular Ca elevation, FLIPR Tetra; relative to 1 μM porcine NMU-8; read-out: hNMUR2 EC50
# T2 construct: expressed in transfected cells
# Protocol: as §1, §2, §3
# male C57BL/6J mice = assay: Subcutaneous administration test in mice (anorectic activity, food intake); type: in vivo; conditions: 600 nmol/kg/day subcutaneous, food intake 1 day after initiation of administration, vs solvent control
# Protocol: Subcutaneous Administration Test in Mice Anorectic activity of the test compounds was evaluated by the following method. Each of the test compounds was dissolved in a solvent (physiological saline), and an amount of 600 nmol/kg/day was used. An amount of 2 mL/Kg of an administration liquid obtained by dissolving each test compound in physiological saline was subcutaneously administered to the back of 9- to 10-week-old male C57BL/6J mice (CLEA Japan, Inc.) (at 25° C., having free access to food and water, 12 hours of light period and 12 hours of dark period). After the administration, the mice were returned to breeding cages (individual feeding), pre-weighed food was given, and the food intake 1 day after the initiation of the administration was measured. The food intake was calculated by subtracting the weight of the food remaining from the weight of the food given on the day the administration was initiated. Based on the calculated food intake, the anorectic ratio (%) of each test compound was calculated using the following formula. […] The group where only the solvent was administered as described above was used as a control group. Food Intake Inhibition (%): {(food intake of the control group−food intake of a test compound administration group)/food intake of the control group}×100
# cynomolgus monkeys = assay: Single subcutaneous administration test in monkeys (emetic response); type: in vivo
# Protocol: Single Subcutaneous Administration Test in Monkeys
# The emetic response induced by the test compounds was evaluated by the following method.
# The test compound C was dissolved in physiological saline at a concentration of 1,000 nmol/kg and the test compound D was dissolved in physiological saline at a concentration of 300 nmol/kg, and used separately. An administration liquid obtained by dissolving each test compound in physiological saline was subcutaneously administered to the back of cynomolgus monkeys (2 males and 2 females each, 3 years and 11 months old to 4 years and 4 months old). After the administration, the animals were immediately returned to their individual cages, and videotaped for 10 hours. Vomiting and dry heaves observed during the videotaping were counted. Vomits were counted as the number of instances of vomiting up to 24 hours after the completion of the videotaping.
# T2 sequence (Q9GZQ4 whole entry): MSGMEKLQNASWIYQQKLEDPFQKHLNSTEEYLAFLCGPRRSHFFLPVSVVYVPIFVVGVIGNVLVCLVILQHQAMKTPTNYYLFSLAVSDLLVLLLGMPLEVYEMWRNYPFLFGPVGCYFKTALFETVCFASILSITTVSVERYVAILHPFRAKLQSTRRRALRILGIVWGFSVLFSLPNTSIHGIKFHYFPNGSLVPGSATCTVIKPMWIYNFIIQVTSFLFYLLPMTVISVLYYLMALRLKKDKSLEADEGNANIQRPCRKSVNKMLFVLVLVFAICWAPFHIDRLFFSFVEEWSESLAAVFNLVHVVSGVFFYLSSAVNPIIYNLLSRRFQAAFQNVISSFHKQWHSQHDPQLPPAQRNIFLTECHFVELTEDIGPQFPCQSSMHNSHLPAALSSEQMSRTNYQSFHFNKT
Substance,EC50 (human NMUR1),EC50 (human NMUR2),Food intake Inhibition (male C57BL/6J mice),"No. of vomiting (0-24 h) (cynomolgus monkeys; 300 nmol/kg single subcutaneous, n = 4 (2 males, 2 females))","emetic response (vomiting), result in words (cynomolgus monkeys; single subcutaneous, C 1,000 nmol/kg, D 300 nmol/kg)"
"PEG20k(AL)-Acp0,Nal(2)2,NMeAla6-NMU-8 ({PEG20k(AL)-Ahx}-Y[2Nal]LFR[NMeA]RN-NH2) [Compound G, PEG20k(AL)-Acp-Tyr-Nal(2)-Leu-Phe-Arg-NMeAla-Arg-Asn-NH2]",170 nM,5.9 nM,71.4%,,
"PEG20k(AL)-NpipAc0,Nal(2)2,Ala6-NMU-8 ({PEG20k(AL)-Acetyl(2-(piperazin-1-yl))}-Y[2Nal]LFRARN-NH2) [Compound D, PEG20k(AL)-NpipAc-Tyr-Nal(2)-Leu-Phe-Arg-Ala-Arg-Asn-NH2]",> 1000 nM,8.8 nM,70.5%,0,prevent vomiting
"PEG20k(AL)-PEG(2)0,Nal(2)2,NMeAla6-NMU-8 ({PEG20k(AL)-PEG(2)}-Y[2Nal]LFR[NMeA]RN-NH2) [PEG20k(AL)-PEG(2)-Tyr-Nal(2)-Leu-Phe-Arg-NMeAla-Arg-Asn-NH2]",> 1000 nM,39 nM,68.6%,,
"PEG20k(AL)-Pic(4)0,Nal(2)2,NMeAla6-NMU-8 ({PEG20k(AL)-Pic(4)}-Y[2Nal]LFR[NMeA]RN-NH2; reading uncertain) [Compound F, PEG20k(AL)-Pic(4)-Tyr-Nal(2)-Leu-Phe-Arg-NMeAla-Arg-Asn-NH2]",> 1000 nM,54 nM,74.3%,,
